Data: PMC11488288

Legend:
[1] = nuclear/cytoplasmic fractionation and immunofluorescence
[2] = HA-Ub, MG132, IP and immunoblot, NP cells
[3] = cycloheximide chase, immunoblot, NP cells
[4] = in vitro ubiquitination with His-OGT and UDP-GlcNAc; details: glycan lost; control: purified Flag-YTHDF2 WT
[5] = actinomycin D chase, RT-qPCR; details: glycan lost; control: shYTHDF2 + Flag-YTHDF2 WT
[6] = immunoblot, with or without MG132, CQ, BafA1; details: glycan lost; control: untreated
[7] = IHC and Western blot of disc tissue; details: glycan gained; control: IDD mice given saline
[8] = immunoblot of endogenous YTHDF2, NP cells; details: glycan gained; control: H2O2 alone
[9] = glycan lost, control: Flag-YTHDF2 WT
[10] = glycan gained, control: untreated Flag-YTHDF2 WT

B1: YTHDF2: S263A (protein)
parent chain: MSASSLLEQRPKGQGNKVQNGSVHQKDGLNDDDFEPYLSPQARPNNAYTAMSDSYLPSYYSPSIGFSYSLGEAAWSTGGDTAMPYLTSYGQLSNGEPHFLPDAMFGQPGALGSTPFLGQHGFNFFPSGIDFSAWGNNSSQGQSTQSSGYSSNYAYAPSSLGGAMIDGQSAFANETLNKAPGMNTIDQGMAALKLGSTEVASSVPKVVGSAVGSGSITSNIVASSSLPPATIAPPKPASWADIASKPAKQQPKLKTKNGIAGSSLPPPPIKHNMDIGTWDNKGPVAKAPSQALVQNIGQPTQGSPQPVGQQANNSPPVAQASVGQQTQPLPPPPPQPAQLSVQQQAAQPTRWVAPRNRGSGFGHNGVDGNGVGQSQAGSGSTPSEPHPVLEKLRSINNYNPKDFDWNLKHGRVFIIKSYSEDDIHRSIKYNIWCSTEHGNKRLDAAYRSMNGKGPVYLLFSVNGSGHFCGVAEMKSAVDYNTCAGVWSQDKWKGRFDVRWIFVKDVPNSQLRHIRLENNENKPVTNSRDTQEVPLEKAKQVLKIIASYKHTTSIFDDFSHYEKRQEEEESVKKERQGRGK
localisation_or_trafficking [1, 9]: no change
other: ubiquitination [2, 9]: increases
degradation_or_half_life [3, 9]: decreases
other: ubiquitination [4]: increases
other: target mRNA stability [5]: decreases

B2: YTHDF2: OSMI-1 (protein)
parent chain: MSASSLLEQRPKGQGNKVQNGSVHQKDGLNDDDFEPYLSPQARPNNAYTAMSDSYLPSYYSPSIGFSYSLGEAAWSTGGDTAMPYLTSYGQLSNGEPHFLPDAMFGQPGALGSTPFLGQHGFNFFPSGIDFSAWGNNSSQGQSTQSSGYSSNYAYAPSSLGGAMIDGQSAFANETLNKAPGMNTIDQGMAALKLGSTEVASSVPKVVGSAVGSGSITSNIVASSSLPPATIAPPKPASWADIASKPAKQQPKLKTKNGIAGSSLPPPPIKHNMDIGTWDNKGPVAKAPSQALVQNIGQPTQGSPQPVGQQANNSPPVAQASVGQQTQPLPPPPPQPAQLSVQQQAAQPTRWVAPRNRGSGFGHNGVDGNGVGQSQAGSGSTPSEPHPVLEKLRSINNYNPKDFDWNLKHGRVFIIKSYSEDDIHRSIKYNIWCSTEHGNKRLDAAYRSMNGKGPVYLLFSVNGSGHFCGVAEMKSAVDYNTCAGVWSQDKWKGRFDVRWIFVKDVPNSQLRHIRLENNENKPVTNSRDTQEVPLEKAKQVLKIIASYKHTTSIFDDFSHYEKRQEEEESVKKERQGRGK
localisation_or_trafficking ([1]; glycan lost, control: untreated): no change
expression_or_secretion [6]: decreases

B3: YTHDF2: TMG (protein)
parent chain: MSASSLLEQRPKGQGNKVQNGSVHQKDGLNDDDFEPYLSPQARPNNAYTAMSDSYLPSYYSPSIGFSYSLGEAAWSTGGDTAMPYLTSYGQLSNGEPHFLPDAMFGQPGALGSTPFLGQHGFNFFPSGIDFSAWGNNSSQGQSTQSSGYSSNYAYAPSSLGGAMIDGQSAFANETLNKAPGMNTIDQGMAALKLGSTEVASSVPKVVGSAVGSGSITSNIVASSSLPPATIAPPKPASWADIASKPAKQQPKLKTKNGIAGSSLPPPPIKHNMDIGTWDNKGPVAKAPSQALVQNIGQPTQGSPQPVGQQANNSPPVAQASVGQQTQPLPPPPPQPAQLSVQQQAAQPTRWVAPRNRGSGFGHNGVDGNGVGQSQAGSGSTPSEPHPVLEKLRSINNYNPKDFDWNLKHGRVFIIKSYSEDDIHRSIKYNIWCSTEHGNKRLDAAYRSMNGKGPVYLLFSVNGSGHFCGVAEMKSAVDYNTCAGVWSQDKWKGRFDVRWIFVKDVPNSQLRHIRLENNENKPVTNSRDTQEVPLEKAKQVLKIIASYKHTTSIFDDFSHYEKRQEEEESVKKERQGRGK
localisation_or_trafficking ([1]; glycan gained, control: untreated): no change
expression_or_secretion [7]: increases
other: ubiquitination [2, 10]: changes
expression_or_secretion [8]: increases
degradation_or_half_life [3, 10]: increases
